Key:
[1] = test system: CHO-GSK1SV cell line; experiment: SEAP expression and cell number in normoxia vs 24 h hypoxia, stably transfected CHO-GS-KSV1; format: cell-based, chinese hamster; conditions: stably integrated CHO-GSK1SV
Description: Cell suspensions of 6×10^5 cells per mL are incubated on an orbital shaker set at 8% CO2, 20% O2, 37° C., 85% relative humidity and 140 rpm overnight. 2.86×10^7 cells were centrifuged at 200 g for 3 minutes. Media is then aspirated and cell pellet resuspended in 2 mL fresh CD-CHO media to obtain a concentration of 1.43×10^7 cells per mL. 700 μL of cell suspension was added to each of two electroporation cuvettes each containing […] of linearised DNA in 100 μL of sterile TE buffer (Thermofisher, 12090015). Each cuvette was electroporated, delivering a single pulse of 300V, […] with resistance to infinity. Immediately after delivery of pulse electroplated cells were transferred to Erlenmeyer 125 mL flask containing 20 mL of CD-CHO media pre-warmed to 37° C. Electroporated cells from two cuvettes are combined into a single 125 mL flask to generate one pool of cells. Cells are cultured on an orbital shaker set at 8% CO2, 20% 02, 37° C., 85% relative humidity and 140 rpm. Cells are transferred to fresh CD-CHO media 24 hours after transfection and cell cultures monitored and given fresh CD-CHO media every 2-4 days. Usually after about 10-14 days cell numbers will be high enough to start passaging. Cells were selected at 14 days and then expanded. Induction was performed once doubling time had returned to approx. 24 hrs. The cells assayed in this example were at passage number 15, 17, 19 and 21.
The transfected DNA was pXC-17.4 expression vector (Lonza Biologics plc) where one of the promoter constructs (RTV-015, HYBT, RTV-016, HV3C) or a control promoter (CMV-IE) have been cloned upstream of the SEAP gene, which had been cloned into the multiple cloning site within the vector expression cassette. Promoters were closed into the pXC-17.4 vector using Gibson assembly. The pXC-17.4 expression vector is designed for making stable cell lines in the CHO-GSK1SV cell line as it contains the […] gene which has been knocked out of the cell line. Therefore, selection of cells in glutamine drop-out medium will select for cells that have stably integrated the plasmid.
Stably transfected CHO-GS cells were seeded at 500,000 cells/ml and allowed to grow for 24 hrs, at this point the cells were counted and placed under hypoxic conditions as previously described. After 24 hrs, the cell numbers and the expression of SEAP was measured.
SEAP Reporter Gene Assay, chemiluminescent (Roche, CAT #11 779 842 001) was used to measured SEAP activity as per manufacturers protocol. All reagents and samples were fully pre-equilibrated at room temperature. Culture supernatant was collected from the stably transfected CHO-GS at the specific time points (0 h and 24 h). The supernatant was diluted 1:4 in dilution buffer and heat treated at 65° C. for 30 minutes. The heat-treated sample was then centrifuged for 30 s at maximum speed. 50 μl of the heat-treated sample was then added to 5 μl of inactivation buffer and incubated for 5 min at room temperature. 50 μl of substrate reagent was then added and incubated for 10 min at room temperature. The signal is then read at 477 nm and compared to a calibration curve. SEAP expression was normalized against cell number to ensure that the increase in activity was not due to increased cell numbers and was true induction. The result of this experiment can be seen in FIG. 16 and FIG. 17.

[2] = test system: HEK293-T; experiment: Luciferase expression in normoxia vs 24 h hypoxia, transiently transfected HEK293-T; format: cell-based, human
Description: HEK293-T are seeded at a density of 20%. Once they reached a confluence between 60 and 80%, the media is changed with DMEM (#21885-025—Thermo Scientific) supplemented with 10% FBS (Gibco, 26140). After 3 hours, the cells were transfected by a transfection mix. The transfection mix is prepared by adding DNA ([…] per 6 well plate) and PEI 25 kDA (#23966-1—Polyscience) in a ratio of 1:3 in sterile DPBS (#14190169—ThermoFisher Scientific). After mixing, the transfection mix is incubated at room temperature for 30 minutes and then added directly to the cells. After 16 to 18 h post transfection, the media is changed to DMEM+2% FBS. The transfected DNA was one of the vectors where the promoter constructs (RTV-015, HYBT, RTV-016, HV3C) or a control promoter (CMV-IE) were used to drive luciferase expression and β-galactosidase containing pcDNA6 plasmid. The β-galactosidase containing plasmid was used as internal control for transfection efficiency (Thermofisher, V22020).
After transfection the cells were incubated for 24 hrs in normoxic conditions (20% oxygen). Induction of the promoters was assessed by using luciferase activity after 24 hrs in normoxia or hypoxia (5% oxygen, 10% carbon dioxide and 85% nitrogen). Hypoxia was achieved by gas displacement in a sealed hypoxia chamber.
Luciferase activity was measured using LARII (Dual Luciferase Reporter 1000 assay system, Promega, E1980).
Media was removed from the cells at the respective time point (0, 3, 5, 24 hrs after induction). The cells were washed once in 300 μl of DPBS. Cells were lysed by adding 100 μl of passive lysis buffer to the cells and incubation with rocking for 15 minutes. The cell debris was pelleted by centrifugation of the plate at max speed in a benchtop centrifuge for 1 min. 10 μl of supernatant was pipetted into white 96-well plate and luminescence measured by addition of 50 μl of LARII substrate.
β-galactosidase activity was measured as per manufacturer's instructions (Mammalian βGalactosidase Assay Kit, 75707/75710, Thermo Scientific) using 25 μl of lysate. 25 μl of lysate was transferred into a microplate well and mixed with 25 μl of β-galactosidase Assay Reagent, equilibrated to room temperature. The mixture was incubated at 37° C. for 30 min and absorbance measured at 405 nm.
Luciferase readouts were normalised to β-galactosidase to produce normalised relative luminometer units (RLUs).

[3] = test system: CHO-GSK1SV; experiment: Luciferase expression in normoxia vs 24 h hypoxia, transiently transfected CHO-GS suspension cells; format: cell-based, chinese hamster; conditions: transient CHO_GS
Description: 40 ml of cells were grown in a 250 ml vented Erlenmeyer flask (Sigma-Aldrich CLS431144) at 37° C., 20% O2, 8% CO2 with agitation at 100 rpm. Cells were seeded as at 300,000 cells/ml.
One day before transfection, the cells were counted using a haemocytometer and split to 500,000 cells/ml.
On the day of transfection, the cells are seeded to 1,000,000 cells/ml in 500 μl of appropriate medium (Thermofisher, CD-CHO 10743029) in a 24 well plate. […] of DNA per well was then added to 10 μl of OptiMem medium (Thermofisher; 11058021) and incubated for 5 minutes at room temperature.
Concurrently, 0.625 μl of Freestyle Max reagent (Thermofisher, 16447100) was made up to 10 μl by addition of OptiMem and incubated for 5 minutes at room temperature. After this incubation, both mixes were added to the same tube and incubated at room temperature for 25-30 minutes. The DNA/Max reagent mix (20 μl/well) was then added directly to the cells and the cells incubated at 37 C, 8% CO2 with agitation at 100 rpm.
The transfected DNA was one of the vectors where the promoter constructs (RTV-015, HYBT, RTV-016, HV3C) or a control promoter (CMV-IE) were used to drive luciferase expression and β-galactosidase containing pcDNA6 plasmid. The β-galactosidase containing plasmid was used as internal control for transfection efficiency (Thermofisher, V22020).
After transfection the cells were incubated for 24 hrs in normoxic conditions (20% oxygen). Induction of the promoters was assessed by using luciferase activity after 24 hrs in normoxia or hypoxia (5% oxygen, 10% carbon dioxide and 85% nitrogen). Hypoxia was achieved by gas displacement in a sealed hypoxia chamber. Luciferase activity was measured as described above.

Row | Molecule | SEAP activity in normoxia [1] | inducibility after 24 hours in hypoxia (rank) [1] | luciferase activity in normoxia [2] | luciferase activity in normoxia [3]
1 | HYBT: synthetic hypoxia-inducible promoter, SEQ ID NO: 84/86; 4 HRE3 elements and YB-TATA minimal promoter (nucleic acid, Synp-HYBT, 4 HRE3 elements and YB-TATA minimal promoter) DNA: GATCTTTGTATTTAATTAAGACCTTGAGTACGTGCGTCTCTGCACGTATGGCGATTAAGACCTTGAGTACGTGCGTCTCTGCACGTATGGCGATTAAGACCTTGAGTACGTGCGTCTCTGCACGTATGGCGATTAAGACCTTGAGTACGTGCGTCTCTGCACGTATGGCGATTAATCCATATGCTCTAGAGGGTATATAATGGGGGCCACTAGTCTACTACCAGAAAGCTTGGTACCGAGCTCGGATCCAGCCACC | almost no SEAP activity | highest | almost no luciferase activity | almost no luciferase activity
2 | RTV-016: synthetic hypoxia-inducible promoter, SEQ ID NO: 82; 6 HRE2 elements spaced by 20 bp and CMV minimal promoter (nucleic acid, Synp-RTV-016, 6 HRE2 elements spaced by 20 bp and CMV minimal promoter) DNA: CTGCACGTAGATGATGCGTAGCTAGTAGTCTGCACGTAGATGATGCGTAGCTAGTAGTCTGCACGTAGATGATGCGTAGCTAGTAGTCTGCACGTAGATGATGCGTAGCTAGTAGTCTGCACGTAGATGATGCGTAGCTAGTAGTCTGCACGTAGTAGTCGTATGCTGATGCGCAGTTAGCGTAGCTGAGGTACCGTCGACGATATCGGATCCAGGTCTATATAAGCAGAGCTCGTTTAGTGAACCGTCAGATCGCCTAGATACGCCATCCACGCTGTTTTGACCTCCATAGAAGATCGCCACC | almost no SEAP activity | – | almost no luciferase activity | almost no luciferase activity
